In patent US20250197455A1:

Legend:
[1] = target: ConC glycan-base trimer, VRC 7678 (6931_DS-N28-JCBv3-N660-N665.667) (ConC based) (HIV-1 (consensus clade C, ConC)); assay: supernatant ELISA; row scFc-3C-6931-DS-28_JCB04V3-660-665
BG505 N28 502 660-665 = assay: supernatant ELISA; row BG505.RnS7Mut-N28-502-660-665
BG505 N28 JCBv2 660-665 = assay: supernatant ELISA; row BG505.RnS7Mut-N28-JCBv2-660-665
[2] = target: BG505 glycan-base trimer, VRC 7873 (4571_RnS7Mutv1-2G-3Mut-N28-JCBv3-N660-N665.667_613S_620S) (BG505-based) (HIV-1 (BG505, Clade A)); assay: supernatant ELISA; row BG505.RnS7Mut-N28-JCBv3-660-665
BG505 N28 JCBv3 660 = assay: supernatant ELISA; row BG505.RnS7Mut-N28-JCBv3-660
[3] = target: protein-base BG505 trimer, BG505-RnS7Mutv1-DS-SOSIP-2G-3Mut (HIV-1 (BG505, Clade A)); assay: supernatant ELISA; row BG505-RnS(7MutV1)-2G-3mut-DS_SOSIP-scFc
6931-DS-N28-502-660-665 = assay: supernatant ELISA; row scFc-3C-6931-DS-28-502-660-665
6931-DS-N28-JCBv3-660 = assay: supernatant ELISA; row scFc-3C-6931-DS-28_JCB04V3-660

35O22 (antibody)
ELISA OD450 (raw) [1]: 0.954 OD450 | ELISA OD450 (raw) (BG505 N28 502 660-665): 0.785 OD450 | ELISA OD450 (raw) (BG505 N28 JCBv2 660-665): 0.628 OD450 | ELISA OD450 (raw) [2]: 0.632 OD450 | ELISA OD450 (raw) (BG505 N28 JCBv3 660): 0.728 OD450 | ELISA OD450 (raw) [3]: 1.01 OD450 | ELISA OD450 (raw) (6931-DS-N28-502-660-665): 0.916 OD450

PGT122 (antibody)
ELISA OD450 (raw) [1]: 1.48 OD450 | ELISA OD450 (raw) (BG505 N28 502 660-665): 0.864 OD450 | ELISA OD450 (raw) (BG505 N28 JCBv2 660-665): 1 OD450 | ELISA OD450 (raw) [2]: 0.874 OD450 | ELISA OD450 (raw) (BG505 N28 JCBv3 660): 0.906 OD450 | ELISA OD450 (raw) [3]: 1.05 OD450

F105 (antibody)
ELISA OD450 (raw) (BG505 N28 502 660-665): 0.106 OD450 | ELISA OD450 (raw) (BG505 N28 JCBv2 660-665): 0.141 OD450 | ELISA OD450 (raw) [2]: 0.157 OD450 | ELISA OD450 (raw) (6931-DS-N28-JCBv3-660): 0.432 OD450 | ELISA OD450 (raw) (BG505 N28 JCBv3 660): 0.196 OD450 | ELISA OD450 (raw) [3]: 0.134 OD450 | ELISA OD450 (raw) (6931-DS-N28-502-660-665): 0.337 OD450

VRC34.01 (antibody)
ELISA OD450 (raw) [1]: 1.05 OD450 | ELISA OD450 (raw) (BG505 N28 502 660-665): 0.437 OD450 | ELISA OD450 (raw) (BG505 N28 JCBv2 660-665): 0.729 OD450 | ELISA OD450 (raw) [2]: 0.682 OD450 | ELISA OD450 (raw) (6931-DS-N28-JCBv3-660): 0.89 OD450 | ELISA OD450 (raw) (BG505 N28 JCBv3 660): 0.648 OD450 | ELISA OD450 (raw) [3]: 0.783 OD450 | ELISA OD450 (raw) (6931-DS-N28-502-660-665): 0.718 OD450

VRC26.25 (antibody)
ELISA OD450 (raw) [1]: 0.798 OD450 | ELISA OD450 (raw) (BG505 N28 502 660-665): 0.555 OD450 | ELISA OD450 (raw) (BG505 N28 JCBv2 660-665): 0.544 OD450 | ELISA OD450 (raw) [2]: 0.564 OD450 | ELISA OD450 (raw) (6931-DS-N28-JCBv3-660): 0.979 OD450 | ELISA OD450 (raw) (BG505 N28 JCBv3 660): 0.652 OD450 | ELISA OD450 (raw) [3]: 0.71 OD450 | ELISA OD450 (raw) (6931-DS-N28-502-660-665): 0.874 OD450

3BNC117 (antibody)
ELISA OD450 (raw) (BG505 N28 502 660-665): 0.841 OD450 | ELISA OD450 (raw) (BG505 N28 JCBv2 660-665): 0.952 OD450 | ELISA OD450 (raw) [2]: 0.981 OD450 | ELISA OD450 (raw) (6931-DS-N28-JCBv3-660): 1.13 OD450 | ELISA OD450 (raw) (BG505 N28 JCBv3 660): 1.01 OD450 | ELISA OD450 (raw) [3]: 1.04 OD450 | ELISA OD450 (raw) (6931-DS-N28-502-660-665): 1.03 OD450

PGT145 (antibody)
ELISA OD450 (raw) (BG505 N28 502 660-665): 0.531 OD450 | ELISA OD450 (raw) [2]: 0.219 OD450 | ELISA OD450 (raw) (BG505 N28 JCBv3 660): 0.427 OD450 | ELISA OD450 (raw) [3]: 0.683 OD450 | ELISA OD450 (raw) (6931-DS-N28-502-660-665): 0.938 OD450

N6 (antibody)
ELISA OD450 (raw) (BG505 N28 502 660-665): 0.666 OD450 | ELISA OD450 (raw) (BG505 N28 JCBv2 660-665): 0.816 OD450 | ELISA OD450 (raw) [2]: 0.795 OD450 | ELISA OD450 (raw) (6931-DS-N28-JCBv3-660): 0.918 OD450 | ELISA OD450 (raw) (BG505 N28 JCBv3 660): 0.771 OD450 | ELISA OD450 (raw) [3]: 0.811 OD450 | ELISA OD450 (raw) (6931-DS-N28-502-660-665): 0.876 OD450

PGDM1400 (antibody)
ELISA OD450 (raw) [1]: 0.949 OD450 | ELISA OD450 (raw) (BG505 N28 502 660-665): 0.982 OD450 | ELISA OD450 (raw) (BG505 N28 JCBv2 660-665): 1.03 OD450 | ELISA OD450 (raw) [2]: 1.07 OD450 | ELISA OD450 (raw) (6931-DS-N28-JCBv3-660): 0.861 OD450 | ELISA OD450 (raw) (BG505 N28 JCBv3 660): 1.09 OD450 | ELISA OD450 (raw) [3]: 0.985 OD450 | ELISA OD450 (raw) (6931-DS-N28-502-660-665): 0.681 OD450
